According to patent publication US20040265808A1, “Genes involved in osteogenesis, and methods of use” (priority 2001, published 2004):

Tests used:
C2C12 cells = assay: Transient over-expression of candidate genes, cooperation with BMP2 by measurement of alkaline phosphatase; assay type: cell-based, mouse; parameters: key: +: positive or negative cooperation with BMP2; −: positive or negative cooperation with BMP2
Procedure: (§1) Mouse cell lines representing different stages of osteoblastic differentiation, C2C12, C2H10T1/2, ST2 and MC3T3-E1, were grown in the presence of agents capable of the induction of osteoblastic differentiation in vitro such as BMP2 and Sonic Hedgehog or in the presence of TGF beta (negative control) or with serum alone. Primary cells derived from mouse calvaria were also cultured for 0, 2, 7 14 and 21 days and RNA prepared for each time point. For example, C3H10T ½ and C2C12 can be obtained from the ATCC (Manassas, Va., USA) under the collection numbers CCL-226 and CRL-1772, respectively.
(§2) The candidates genes are cloned in expression vectors and their ability to express a protein of the expected size verified by COS cells transient transfection. The genes are then transfected in C3H10T1/2 cells and/or C2C12 cells (transient over-expression) and positive or negative cooperation with BMP2 is evaluated by the measurement of alkaline phosphatase (enzymatic assay and TaqMan) at 48 hours. Controls of positive cooperation, recombinant Sonic Hedgehog, or negative cooperation, recombinant Noggin, are included in each test.

C3H10T1/2 cells = assay: as above; assay type: cell-based, mouse; parameters: key: +: positive or negative cooperation with BMP2; −: positive or negative cooperation with BMP2; conditions: alkaline phosphatase
Procedure: as §1, §2

Row | Molecule | Validation in vitro (coop over BMP2) C2C12 (C2C12 cells) | Validation in vitro (coop over BMP2) C3H10T1/2 (C3H10T1/2 cells)
1 | 42 (nucleic acid, listed as Mus musculus) CGATCGATATGGCAGACACGTTTTCGCTTAACGATGCCTTAGCTGGCTCTGGAAACCCAAACCCTCAAGGATATCCGGGTGCATGGGGGAACCAGCCTGGGGCAGGGGGCTACCCAGGGGCTGCCTATCCTGGGGCCTATCCAGGACAGGCTCCTCCAGGGGCCTACCCAGGACAGGCTCCTCCAGGGGCCTATCCAGGACAGGCTCCTCCTAGTGCCTACCCCGGCCCAACTGCCCCTGGAGCTTATCCTGGCCCAACTGCCCCTGGAGCTTATCCTGGCTCAACTGCCCCTGGAGCCTTCCCAGGGCAACCTGGGGCACCTGGGGCCTACCCCAGTGCTCCTGGAGGCTATCCTGCTGCTGGCCCTTATGGTGTCCCCGCTGGACCACTGACGGTGCCCTATGACCTGCCCTTGCCTGGAGGAGTCATGCCCCGCATGCTGATCACAATCATGGGCACAGTGAAACCCAACGCAAACAGGATTGTTCTAGATTTCAGGAGAGGGAATGATGTTGCCTTCCACTTTAACCCCCGCTTCAATGAGAACAACAGAAGAGTCATTGTGTGTAACACGAAGCAGGACAATAACTGGGGAAAGGAAGAAAGACAGTCAGCCTTCCCCTTTGAGAGTGGAAAACCATTCAAAATACAAGTCCTGGTTGAAGCTGACCACTTCAAGGTTGCGGTCAACGATGCTCACCTACTGCAGTACAACCATCGGATGAAGAACCTCCGGGAAATCAGCCAACTGGGGATCAGTGGTGACATAACCCTCACCAGCGCTAACCACGCCATGATCGCGGCCGCTT | − | −
2 | 55 (nucleic acid, listed as Mus musculus) CGATCGATATGTCTTCAGGAAATGCAAAAATTGGGTATCCTGCTCCCAACTTCAAAGCTACAGCTGTTATGCCAGATGGACAATTCAAAGATATCAGCCTAAGTGAATACAAAGGAAAATATGTTGTGTTCTTCTTTTACCCTCTTGACTTTACTTTTGTGTGTCCCACGGAGATCATTGCTTTCAGTGATAGAGCCGATGAATTTAAGAAACTCAACTGCCAAGTGATTGGCGCTTCTGTGGATTCTCACTTCTGTCATCTGGCATGGATTAACACACCCAAGAAACAAGGAGGATTGGGACCCATGAACATTCCCTTAATATCAGATCCCAAGCGCACCATTGCTCAGGATTATGGAGTCTTAAAGGCTGATGAAGGTATCTCTTTCAGGGGCCTTTTTATTATTGATGATAAAGGTATCCTTCGACAGATAACAATAAACGATCTTCCCGTTGGCCGCTCTGTGGATGAGATTATACGACTAGTCCAGGCCTTCCAGTTCACTGACAAACATGGTGAAGTGTGTCCAGCTGGCTGGAAACCTGGCAGTGATACCATCAAGCCTGATGTCAATAAGAGCAAAGAGTATTTCTCTAAGCAGAAGGCGGCCGCTT | − | −
3 | 63 (nucleic acid, listed as Mus musculus) CGGAATTCGCCATGTCAACAGCAGGAGTTGCTGCTCAGGATATTCGAGTCCCATTAAAAACTGGATTTCTCCATAATGGTCAGGCCTTGGGGAATATGAAGTCCTGCTGGGGCAGTCACAGTGAGTTTGAAAATAACTTTTTAAATATTGATCCAATAACCATGGCCTACAATCTGAACTCCCCTGCTCAGGAGCACCTAACAACTGTTGGATGTGCTGCTCGGTCTGCTCCAGGGAGCGGCCACTTCTTTGCAGAGTGTGGTCCATCTCCAAGGTCAAGCTTGCCCCCTCTTGTTATCTCACCAAGTGAAAGCTCGGGACAGCGTGAAGAGGATCAAGTTATGTGTGGTTTTAAGAAACTCTCAGTGAATGGGGTCTGCACTTCCACACCTCCACTTACACCCATTAAAAGCTGCCCTTCCCCTTTCCCCTGTGCGGCTCTGTGTGATCGGGGTTCTCGGCCGCTCCCGCCACTGCCCATCTCTGAAGACCTATGTGTGGATGAGGCCGACAGTGAGGTAGAGCTTCTAACCACCAGCTCAGACACAGACTTGCTTTTAGAAGACTCTGCGCCTTCAGATTTCAAATACGATGCTCCTGGCAGGCGCAGCTTCCGTGGGTGCGGCCAGATCAACTATGCATATTTTGACAGCCCAACTGTTTCTGTGGCAGATCTTAGCTGTGCATCTGACCAGAACAGAGTTGTTCCAGACCCAAACCCTCCCCCACCTCAAAGCCATCGCAGATTAAGGAGGTCTCACTCAGGACCAGCTGGGTCATTTAACAAGCCAGCCATTCGGATATCTAGCTGCACACACAGAGCTTCTCCTAGCTCTGATGAAGACAAGCCTGAGGTCCCTCCCAGGGTTCCTATACCTCCTAGGCCAGCAAAGCCAGACTATAGACGGTGGTCAGCAGAAGTGACCTCCAACACCTACAGTGATGAAGATAGGCCTCCCAAAGTCCCCCCGAGAGAACCTTTGTCTCGGAGTAACTCCCGTACCCCAAGTCCTAAAAGCCTTCCGTCTTACCTCAATGGGGTCATGCCCCCAACACAGAGCTTCGCTCCTGACCCCAAGTATGTCAGCAGCAAAGCCCTGCAGAGACAGAGCAGCGAAGGATCTGCCAACAAGGTTCCTTGCATCCTGCCCATTATTGAAAATGGGAAGAAGGTTAGCTCAACGCATTATTACTTACTACCTGAGAGGCCACCGTACCTGGACAAATATGAAAAGTATTTTAAGGAAGCAGAAGAAACAAACCCAAGCACCCAAATTCAGCCATTACCTGCTGCCTGTGGTATGGCCTCTGCCACAGAAAAGCTGGCCTCCAGAATGAAAATAGATATGGGTAGCCACGGGAAGCGCAAACACTTATCCTACGTGGTTTCTCCAGCGGCCGCTT | − | −
4 | 68 (nucleic acid, listed as Mus musculus) CGATCGATATGGTCACCCACAGCAAGTTTCCCGCCGCCGGGATGAGCCGCCCCCTGGACACCAGCCTGCGCCTCAAGACCTTCAGCTCCAAAAGCGAGTACCAGCTGGTGGTGAACGCCGTGCGCAAGCTGCAGGAGAGCGGATTCTACTGGAGCGCCGTGACCGGCGGCGAGGCGAACCTGCTGCTCAGCGCCGAGCCCGCGGGCACCTTTCTTATCCGCGACAGCTCGGACCAGCGCCACTTCTTCACGTTGAGCGTCAAGACCCAGTCGGGGACCAAGAACCTACGCATCCAGTGTGAGGGGGGCAGCTTTTCGCTGCAGAGTGACCCCCGAAGCACGCAGCCAGTTCCCCGCTTCGACTGTGTACTCAAGCTGGTGCACCACTACATGCCGCCTCCAGGGACCCCCTCCTTTTCTTTGCCACCCACGGAACCCTCGTCCGAAGTTCCGGAGCAGCCACCTGCCCAGGCACTCCCCGGGAGTACCCCCAAGAGAGCTTACTACATCTATTCTGGGGGCGAGAAGATTCCGCTGGTACTGAGCCGACCTCTCTCCTCCAACGTGGCCACCCTCCAGCATCTTTGTCGGAAGACTGTCAACGGCCACCTGGACTCCTATGAGAAAGTGACCCAGCTGCCTGGACCCATTCGGGAGTTCCTGGATCAGTATGATGCTCCACTTGCGGCCGCTT | − | −
